Source: US20260159585A1 (SHANGHAI HENLIUS BIOTECH, published 2026)

Assays:
[1] = target: T1, human CD47 expressed on cells (human, UniProt Q08722 19-323); test: FACS, whole cell binding to human primary red blood cells, FITC anti-human Fc; upper panel
T1 construct: whole, on cells; One molecule for all cell types; also called CD47 on Jurkat cells; CD47 on human red blood cells (RBCs)

[2] = target: T2, hCD47-His antigen (human, UniProt Q08722 19-139, limits assumed); test: ELISA on coated hCD47-His, HRP anti-human Fc, OD450; plate3
T2 construct: also called human CD47; not shown: His tag

[3] = target: T1, human CD47 expressed on cells; test: FACS, whole cell binding to human primary red blood cells, FITC anti-human Fc; lower panel
[4] = target: T2, hCD47-His antigen; test: ELISA on coated hCD47-His, HRP anti-human Fc, OD450; plate1
[5] = target: T2, hCD47-His antigen; test: ELISA on coated hCD47-His, HRP anti-human Fc, OD450; plate4
[6] = target: T2, hCD47-His antigen; test: ELISA on coated hCD47-His, HRP anti-human Fc, OD450; plate2

B1: M1 #21 (antibody, V domains shown)
VH: QVQLQQWGAGLLKPSETLSLTCAVYGGSFSGYYWSWIRQPPGKGLEWIGEINQSGSTNYNPSLKSRVTISVDTSKNQFSLRLSSVTAADTAMYYCARFTGRPYYGMDVWGQGTTVTVSS
VL: SYELTQPPSVSATPGQRVTISCSGSESNIGSHKVKWYQQFAGAAPRLLIHGNDQRFSGVPDRFSGSKSGTSASLAISGLQSEDEADYYCAAWDDSLYGRVFGGGTKLTVL
- EC50 (read off the curve) [1]: ~0.2 nM
- EC50 (read off the curve) [2]: ~0.1 nM
- EC50 (read off the curve) [3]: ~0.3 nM
- EC50 (read off the curve) [4]: ~0.1 nM
- EC50 (read off the curve) [5]: ~0.07 nM
- EC50 (read off the curve) [6]: ~0.08 nM
